US10947296B2, “Fusion protein Slit2D2(C386S)-HSA and use thereof in treatment of fibrotic diseases” (SUZHOU THINKING POWER BIOTECHNOLOGY CO., LTD., priority 2016, dated 2021)

How the values were obtained:
[1] = Pharmacokinetic assay, single intravenous administration; assay type: in vivo; details: for Plasma drug concentration: IV 2 mg/kg
Protocol: Lines and sources: cynomolgus monkeys, Guangxi Xiongsen Primate Laboratory Animal Breeding Development Co., Ltd.
The test substance was administered in a single dose by intravenous injection.
The blood samples were collected and centrifuged to separate plasma (centrifugation conditions: 8000 rpm, 6 minutes, 2-8° C.). The contents of the label included: the subject number of Medicilon Pharmaceutical Technology (Shanghai) Co., Ltd., relevant test days, serial number of animals, date, and sampling time point. The collected plasma samples were stored in a refrigerator at ≤−65° C. before analysis. After analysis, the remaining plasma samples were stored in the refrigerator at ≤−65° C. for subsequent processing.
The biological sample analysis method and analysis of all samples were performed by the analytical laboratory of Medicilon Pharmaceutical Technology (Shanghai) Co., Ltd. Each plate in the sample analysis must contain a standard curve. At least ¾ of the points and not less than 6 non-zero concentration points (without anchor points) constituting the standard curve should meet the acceptance criteria for method validation. Each plate should also contain at least 2 sets and each set comprised at least 3 quality control samples of different concentration levels (high-concentration quality control, intermediate-concentration quality control, and low-concentration quality control).
The pharmacokinetic parameters were calculated with non-compartmental model using Phoenix pharmacokinetic software: AUC0-t, AUC0-∞, Cmax, t1/2, Tmax, C0, Cl, MRT0-∞ and Vss.

[2] = target: T1, Robo1 protein (Homo sapiens, UniProt Q9Y6N7); assay: Affinity of the fusion protein to receptor Robo1 determined by SPR; assay type: binding; details: Robo1 bound to CM5 chip
T1 construct: purchased ORIGEN TP327713
Protocol: The affinity constant between the protein and Robo1 protein was detected by SPR (Surface Plasmon resonance BIAcore 200) method. The Robo1 protein (ORIGEN, Art. No.: TP327713) was bound to a CM5 chip, and the interaction between the fusion protein Slit2D2(C386S)-HSA (prepared in Example 1), Slit2D2-HSA (as disclosed in Patent Application PCT/CN2015/092079), and the receptor protein Robo1 were analyzed. Kinetic measurements were performed according to the method referred by Canziani et al. (2004, Anal. Biochem. 325: 301-307). Furthermore, the affinity of the Slit2N protein (Slit2N is a protein having a molecular weight of about 120 kDa at the N-terminus of the Slit2 protein) to Robo1 protein was also determined by the same method.

[3] = Mean of 4 animals, single IV 2 mg/kg

T1 sequence (Q9Y6N7 26-1651): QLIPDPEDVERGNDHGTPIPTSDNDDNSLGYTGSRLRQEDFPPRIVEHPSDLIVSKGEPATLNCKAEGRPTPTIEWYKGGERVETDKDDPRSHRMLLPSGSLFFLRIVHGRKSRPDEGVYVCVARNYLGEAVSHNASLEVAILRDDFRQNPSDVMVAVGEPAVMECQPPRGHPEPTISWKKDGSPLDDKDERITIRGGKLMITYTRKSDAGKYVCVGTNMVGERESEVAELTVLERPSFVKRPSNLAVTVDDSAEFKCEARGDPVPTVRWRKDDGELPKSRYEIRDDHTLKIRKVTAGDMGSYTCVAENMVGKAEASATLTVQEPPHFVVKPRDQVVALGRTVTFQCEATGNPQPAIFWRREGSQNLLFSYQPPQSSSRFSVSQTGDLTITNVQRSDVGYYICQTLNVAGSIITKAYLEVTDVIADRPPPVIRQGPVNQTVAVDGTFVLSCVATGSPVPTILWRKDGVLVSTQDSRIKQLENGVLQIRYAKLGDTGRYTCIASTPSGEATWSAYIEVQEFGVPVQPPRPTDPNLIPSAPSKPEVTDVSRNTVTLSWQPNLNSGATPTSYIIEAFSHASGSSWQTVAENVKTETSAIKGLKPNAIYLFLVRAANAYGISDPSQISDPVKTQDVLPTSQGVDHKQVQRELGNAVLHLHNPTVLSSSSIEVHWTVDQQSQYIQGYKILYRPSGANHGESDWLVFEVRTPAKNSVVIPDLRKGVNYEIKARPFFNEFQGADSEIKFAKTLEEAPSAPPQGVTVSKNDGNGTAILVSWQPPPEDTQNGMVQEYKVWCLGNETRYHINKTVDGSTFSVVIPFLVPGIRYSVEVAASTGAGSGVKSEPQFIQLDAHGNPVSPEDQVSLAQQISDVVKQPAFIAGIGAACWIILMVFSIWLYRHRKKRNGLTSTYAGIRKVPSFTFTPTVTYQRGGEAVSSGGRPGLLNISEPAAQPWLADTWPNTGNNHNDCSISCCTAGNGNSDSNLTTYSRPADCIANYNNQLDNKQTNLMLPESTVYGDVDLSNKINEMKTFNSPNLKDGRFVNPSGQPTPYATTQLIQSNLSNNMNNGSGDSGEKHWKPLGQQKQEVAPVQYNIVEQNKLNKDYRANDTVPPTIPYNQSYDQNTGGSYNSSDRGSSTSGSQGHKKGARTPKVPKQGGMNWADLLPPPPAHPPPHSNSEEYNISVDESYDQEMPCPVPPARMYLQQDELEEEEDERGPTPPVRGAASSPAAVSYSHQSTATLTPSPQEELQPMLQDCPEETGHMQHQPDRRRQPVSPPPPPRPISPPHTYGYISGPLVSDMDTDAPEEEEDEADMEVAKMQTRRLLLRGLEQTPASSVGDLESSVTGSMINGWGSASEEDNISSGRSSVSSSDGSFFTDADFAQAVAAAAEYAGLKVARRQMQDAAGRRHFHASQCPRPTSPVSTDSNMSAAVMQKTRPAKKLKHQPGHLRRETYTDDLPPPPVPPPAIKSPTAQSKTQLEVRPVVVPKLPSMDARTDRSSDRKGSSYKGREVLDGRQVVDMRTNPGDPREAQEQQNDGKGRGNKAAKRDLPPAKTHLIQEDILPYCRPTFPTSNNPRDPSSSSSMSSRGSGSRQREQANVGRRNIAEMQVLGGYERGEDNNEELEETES

Slit2D2(C386S)-HSA: Fusion protein of the Slit2 D2 domain with C386S mutation linked to human serum albumin; amino acid sequence SEQ ID NO: 3
Plasma drug concentration ([1]; 101-Male, day 0.125): 16151.832 ng/mL
Plasma drug concentration ([1]; 101-Male, day 0.25): 15501.583 ng/mL
Plasma drug concentration ([1]; 101-Male, day 0.5): 13047.082 ng/mL
Plasma drug concentration ([1]; 101-Male, day 2): 11326.279 ng/mL
Plasma drug concentration ([1]; 101-Male, day 5): 6773.314 ng/mL
Plasma drug concentration ([1]; 101-Male, day 6): 2717.981 ng/mL
Plasma drug concentration ([1]; 101-Male, day 8): 1577.577 ng/mL
Plasma drug concentration ([1]; 101-Male, day 11): BLQ (Below the minimum limit of quantitation)
Plasma drug concentration ([1]; 101-Male, day 14): BLQ (Below the minimum limit of quantitation)
Plasma drug concentration ([1]; 101-Male, day 17): BLQ (Below the minimum limit of quantitation)
Plasma drug concentration ([1]; 101-Male, day 19): BLQ (Below the minimum limit of quantitation)
Plasma drug concentration ([1]; 101-Male, day 22): BLQ (Below the minimum limit of quantitation)
Plasma drug concentration ([1]; 101-Male, day 26): BLQ (Below the minimum limit of quantitation)
Plasma drug concentration ([1]; 101-Male, day 29): BLQ (Below the minimum limit of quantitation)
Plasma drug concentration ([1]; 101-Male, day 36): BLQ (Below the minimum limit of quantitation)
Plasma drug concentration ([1]; 101-Male, day 43): BLQ (Below the minimum limit of quantitation)
AUC(0-t) ([1]; 101-Male, single IV 2 mg/kg): 45588.03 ng·days/mL
AUC(0-∞) ([1]; 101-Male, single IV 2 mg/kg): 50239.09 ng·days/mL
C0 ([1]; 101-Male, single IV 2 mg/kg): 16829.36 ng/mL
CL ([1]; 101-Male, single IV 2 mg/kg): 1.659 mL/h/kg
Cmax ([1]; 101-Male, single IV 2 mg/kg): 16151.83 ng/mL
MRT(0-∞) ([1]; 101-Male, single IV 2 mg/kg): 68.2 h
Tmax ([1]; 101-Male, single IV 2 mg/kg): 3.12 h
Vss ([1]; 101-Male, single IV 2 mg/kg): 0.11309 L/kg
t1/2 ([1]; 101-Male, single IV 2 mg/kg): 49 h
Plasma drug concentration ([1]; 102-Male, day 0.125): 12629.116 ng/mL
Plasma drug concentration ([1]; 102-Male, day 0.25): 13612.467 ng/mL
Plasma drug concentration ([1]; 102-Male, day 0.5): 13169.983 ng/mL
Plasma drug concentration ([1]; 102-Male, day 2): 8055.924 ng/mL
Plasma drug concentration ([1]; 102-Male, day 5): 4063.179 ng/mL
Plasma drug concentration ([1]; 102-Male, day 6): 2215.633 ng/mL
Plasma drug concentration ([1]; 102-Male, day 8): BLQ (Below the minimum limit of quantitation)
Plasma drug concentration ([1]; 102-Male, day 11): BLQ (Below the minimum limit of quantitation)
Plasma drug concentration ([1]; 102-Male, day 14): BLQ (Below the minimum limit of quantitation)
Plasma drug concentration ([1]; 102-Male, day 17): BLQ (Below the minimum limit of quantitation)
Plasma drug concentration ([1]; 102-Male, day 19): BLQ (Below the minimum limit of quantitation)
Plasma drug concentration ([1]; 102-Male, day 22): BLQ (Below the minimum limit of quantitation)
Plasma drug concentration ([1]; 102-Male, day 26): BLQ (Below the minimum limit of quantitation)
Plasma drug concentration ([1]; 102-Male, day 29): BLQ (Below the minimum limit of quantitation)
Plasma drug concentration ([1]; 102-Male, day 36): BLQ (Below the minimum limit of quantitation)
Plasma drug concentration ([1]; 102-Male, day 43): BLQ (Below the minimum limit of quantitation)
AUC(0-t) ([1]; 102-Male, single IV 2 mg/kg): 30270.94 ng·days/mL
AUC(0-∞) ([1]; 102-Male, single IV 2 mg/kg): 37136.49 ng·days/mL
C0 ([1]; 102-Male, single IV 2 mg/kg): 12629.12 ng/mL
CL ([1]; 102-Male, single IV 2 mg/kg): 2.244 mL/h/kg
Cmax ([1]; 102-Male, single IV 2 mg/kg): 13612.47 ng/mL
MRT(0-∞) ([1]; 102-Male, single IV 2 mg/kg): 67.4 h
Tmax ([1]; 102-Male, single IV 2 mg/kg): 6 h
Vss ([1]; 102-Male, single IV 2 mg/kg): 0.15145 L/kg
t1/2 ([1]; 102-Male, single IV 2 mg/kg): 51.6 h
Plasma drug concentration ([1]; 103-Female, day 0.125): 13162.76 ng/mL
Plasma drug concentration ([1]; 103-Female, day 0.25): 11266.684 ng/mL
Plasma drug concentration ([1]; 103-Female, day 0.5): 9508.594 ng/mL
Plasma drug concentration ([1]; 103-Female, day 2): 5952.269 ng/mL
Plasma drug concentration ([1]; 103-Female, day 5): 3914.939 ng/mL
Plasma drug concentration ([1]; 103-Female, day 6): 2155.966 ng/mL
Plasma drug concentration ([1]; 103-Female, day 8): 731.688 ng/mL
Plasma drug concentration ([1]; 103-Female, day 11): BLQ (Below the minimum limit of quantitation)
Plasma drug concentration ([1]; 103-Female, day 14): BLQ (Below the minimum limit of quantitation)
Plasma drug concentration ([1]; 103-Female, day 17): BLQ (Below the minimum limit of quantitation)
Plasma drug concentration ([1]; 103-Female, day 19): BLQ (Below the minimum limit of quantitation)
Plasma drug concentration ([1]; 103-Female, day 22): BLQ (Below the minimum limit of quantitation)
Plasma drug concentration ([1]; 103-Female, day 26): BLQ (Below the minimum limit of quantitation)
Plasma drug concentration ([1]; 103-Female, day 29): BLQ (Below the minimum limit of quantitation)
Plasma drug concentration ([1]; 103-Female, day 36): BLQ (Below the minimum limit of quantitation)
Plasma drug concentration ([1]; 103-Female, day 43): BLQ (Below the minimum limit of quantitation)
AUC(0-t) ([1]; 103-Female, single IV 2 mg/kg): 28598.53 ng·days/mL
AUC(0-∞) ([1]; 103-Female, single IV 2 mg/kg): 30524.24 ng·days/mL
C0 ([1]; 103-Female, single IV 2 mg/kg): 15377.93 ng/mL
CL ([1]; 103-Female, single IV 2 mg/kg): 2.73 mL/h/kg
Cmax ([1]; 103-Female, single IV 2 mg/kg): 13162.76 ng/mL
MRT(0-∞) ([1]; 103-Female, single IV 2 mg/kg): 61.9 h
Tmax ([1]; 103-Female, single IV 2 mg/kg): 3.12 h
Vss ([1]; 103-Female, single IV 2 mg/kg): 0.16888 L/kg
t1/2 ([1]; 103-Female, single IV 2 mg/kg): 43.7 h
Plasma drug concentration ([1]; 104-Female, day 0.125): 13541.873 ng/mL
Plasma drug concentration ([1]; 104-Female, day 0.25): 12289.107 ng/mL
Plasma drug concentration ([1]; 104-Female, day 0.5): 10597.55 ng/mL
Plasma drug concentration ([1]; 104-Female, day 2): 8296.324 ng/mL
Plasma drug concentration ([1]; 104-Female, day 5): 3663.777 ng/mL
Plasma drug concentration ([1]; 104-Female, day 6): 1433.272 ng/mL
Plasma drug concentration ([1]; 104-Female, day 8): BLQ (Below the minimum limit of quantitation)
Plasma drug concentration ([1]; 104-Female, day 11): BLQ (Below the minimum limit of quantitation)
Plasma drug concentration ([1]; 104-Female, day 14): BLQ (Below the minimum limit of quantitation)
Plasma drug concentration ([1]; 104-Female, day 17): BLQ (Below the minimum limit of quantitation)
Plasma drug concentration ([1]; 104-Female, day 19): BLQ (Below the minimum limit of quantitation)
Plasma drug concentration ([1]; 104-Female, day 22): BLQ (Below the minimum limit of quantitation)
Plasma drug concentration ([1]; 104-Female, day 26): BLQ (Below the minimum limit of quantitation)
Plasma drug concentration ([1]; 104-Female, day 29): BLQ (Below the minimum limit of quantitation)
Plasma drug concentration ([1]; 104-Female, day 36): BLQ (Below the minimum limit of quantitation)
Plasma drug concentration ([1]; 104-Female, day 43): BLQ (Below the minimum limit of quantitation)
AUC(0-t) ([1]; 104-Female, single IV 2 mg/kg): 28034.90 ng·days/mL
AUC(0-∞) ([1]; 104-Female, single IV 2 mg/kg): 31263.33 ng·days/mL
C0 ([1]; 104-Female, single IV 2 mg/kg): 14922.35 ng/mL
CL ([1]; 104-Female, single IV 2 mg/kg): 2.665 mL/h/kg
Cmax ([1]; 104-Female, single IV 2 mg/kg): 13541.87 ng/mL
MRT(0-∞) ([1]; 104-Female, single IV 2 mg/kg): 50.4 h
Tmax ([1]; 104-Female, single IV 2 mg/kg): 3.12 h
Vss ([1]; 104-Female, single IV 2 mg/kg): 0.13446 L/kg
t1/2 ([1]; 104-Female, single IV 2 mg/kg): 37.4 h
AUC(0-t) [1, 3]: 33123.10 ng·days/mL
AUC(0-∞) [1, 3]: 37290.79 ng·days/mL
C0 [1, 3]: 14939.69 ng/mL
CL [1, 3]: 2.325 mL/h/kg
Cmax [1, 3]: 14117.23 ng/mL
MRT(0-∞) [1, 3]: 61.9 h
Tmax [1, 3]: 3.84 h
Vss [1, 3]: 0.14197 L/kg
t1/2 [1, 3]: 45.4 h
Plasma drug concentration ([1]; Mean, day 0.125): 13871.40 ng/mL
Plasma drug concentration ([1]; Mean, day 0.25): 13167.46 ng/mL
Plasma drug concentration ([1]; Mean, day 0.5): 11580.80 ng/mL
Plasma drug concentration ([1]; Mean, day 2): 8407.70 ng/mL
Plasma drug concentration ([1]; Mean, day 5): 4603.80 ng/mL
Plasma drug concentration ([1]; Mean, day 6): 2130.71 ng/mL
Plasma drug concentration ([1]; Mean, day 8): 1154.63 ng/mL
Observation during the test (morbidity, damage, death rate, food and water supply) ([1]; single IV 2 mg/kg): No abnormal findings
ratio of AUC(0-∞) between male and female ([1]; single IV 2 mg/kg): 1.41
ratio of Cmax between male and female ([1]; single IV 2 mg/kg): 1.11
ratio of t1/2 between male and female ([1]; single IV 2 mg/kg): 1.24
Ka [2]: 864700 M⁻¹ s⁻¹
